Patent publication US10272050B2, “Nanoparticles and methods of use” (The Brigham and Women's Hospital, Inc., priority 2014, dated 2019)

B1: recombinant mouse interleukin 10 (protein, UniProt P18893 19-178, looked up)
Interleukin-10: SRGQYSREDNNCTHFPVGQSHMLLELRTAFSQVKTFFQTKDQLDNILLTDSLMQDFKGYLGCQALSEMIQFYLVEVMPQAEKHGPEIKEHLNSLGEKLKTLRMRLRRCHRFLPCENKSKAVEQVKSDFNKLQDQGVYKAMNEFDIFINCIEAYMMIKMKS
notes: recombinant mouse interleukin 10, Mw ~36 kDa, from R&D Systems
B2: released IL-10: IL-10 released from TNPs (obtained at 48 h post-release) (protein, UniProt P18893 19-178, looked up)
Interleukin-10: B1 Interleukin-10
modifications: released from nanoparticles

Assays:
[1] = Protein encapsulation efficiency and loading content (solvent-free loading, ELISA of unloaded protein); format: physicochemical; conditions: loaded into TNPs at 4° C. without organic solvents
Method: The protein encapsulation efficiency and the loading content were determined by separation of unloaded proteins from TNPs using Amicon Ultra centrifugal filters (MWCO 100 kDa). Unloaded proteins were measured using a protein ELISA kit and Synergy HT multi-mode microplate reader (BioTek Instruments Inc., Winooski, Vt., USA) at […] absorbance.

[2] = In vitro release of proteins from TNPs in PBS; format: physicochemical; conditions: 100 rpm, 37° C.
Method: The protein-loaded nanoparticles were dispersed in 1 mL of phosphate-buffered saline solution (PBS) and subsequently incubated in a shaking incubator at 100 rpm and 37° C. At each time point, the protein released from nanoparticles was isolated using Amicon Ultra-0.5 centrifugal filters (MWCO 50 kDa) at 5,000 rpm for 2 min at 20° C. Then the protein-loaded nanoparticles were resuspended in PBS and incubated in the same manner until the last defined time point. The amount of released protein at each time point was measured at 450 nm using an ELISA kit. The measurements were done in triplicate.

[3] = system: intracellular ROS in LPS-stimulated RAW 264.7 macrophage cells; experiment: Inhibition of intracellular ROS in LPS-stimulated macrophages (DCFH2-DA); format: cell-based
Method: To analyze the inhibitory effect of IL-10 on intracellular reactive oxygen species (ROS) generated from lipopolysaccharide (LPS)-stimulated macrophage cells, RAW 264.7 macrophage cells were seeded on a 24-well tissue culture plate at a density of 2×10^4 cells per well and then allowed to grow for 12 h. The cells were pre-treated with IL-10 at various concentrations (1 to 100 ng/mL) for 2 h and 24 h at 37° C. Then the medium was replaced with LPS solution (100 ng/mL), and the cells were further incubated for 4 h and 24 h at 37° C. The cells were then washed with PBS and incubated with 10 μM ROS detection reagent (DCFH2-DA) for 90 min at 37° C. Fluorescence intensity was measured using a Synergy HT multi-mode microplate reader with ex/em 485/528 nm filter (BioTek Instruments Inc).
In order to determine the bioactive integrity of IL-10 released from or loaded into TNPs, cells seeded on a 24-well tissue culture plate (2×10^4 cells/well) were pre-treated with native IL-10, IL-10 released from TNPs (obtained at 48 h post-release), or IL-10-loaded TNPs at 50 ng/mL concentration for 24 h at 37° C. Next, the medium was replaced with LPS solution (100 ng/mL), and the cells were stimulated with LPS for 24 h at 37° C. After washing with PBS, intracellular ROS was measured using the detection method mentioned above. […]

[4] = system: sIL-1Ra gene expression; experiment: qPCR of sIL-1Ra in LPS-stimulated macrophage cells; format: cell-based; conditions: LPS 500 ng/mL 4 h, then IL-10 20 ng/mL 2 h
Method: (§1) Macrophage cells were seeded on a 6-well tissue culture plate (5×10^5 cells/well) and maintained for 12 h. The cells were treated with LPS (500 ng/mL) for 4 h, the medium was replaced with IL-10 solution (native IL-10 or released IL-10 at 20 ng/mL), and the cells were incubated for 2 h at 37° C. Next, the cells were washed with PBS and harvested by scraping, followed by centrifugation at 2,000 rpm for 5 min at 4° C. The isolated cell pellets were used to prepare the total RNA using the RNeasy® Mini Kit (QIAGEN, Valencia, Calif., USA) according to the manufacturer's protocol. For the preparation of cDNA, the extracted RNA solution (1 μg/5 μL) was then mixed with 0.5 μL of Oligo (dT) 15 primer (Promega, Madison, Wis., USA) and then reacted at 70° C. for 5 min using the Bio-Rad iCycler PCR Thermal Cycler (Bio-Rad Laboratories, Inc., Hercules, Calif., USA). The mixture was subsequently placed on ice for 5 min and mixed with various components to a final volume of 20 μL: nuclease-free water (5.6 μL), 10 mM dNTP mixture (Promega, 1 μL), 25 mM MgCl2 (Promega, 2.4 μL), ImProm-II™ reverse transcriptase (Promega, 1 μL), ImProm-II™ 5× reaction buffer (Promega, 4 μL), and RNasin® Plus RNase inhibitor (Promega, 0.5 μL). […] The relative gene expression levels were calculated using the ΔΔCt method and normalized to the expression of the reference gene (β-Actin). […]

[5] = system: STAT3 and phosphorylated STAT3 (P-STAT3 at Tyr705); experiment: Western blot of STAT3 and P-STAT3 in unstimulated macrophage cells; format: cell-based; conditions: 20 ng/mL, 24 h; for Total levels of STAT3: β-Actin reference
Method: To determine the bioactivity of IL-10 in unstimulated cells, macrophage cells seeded on a 6-well tissue culture plate (5×10^5 cells/well) were treated with IL-10 (native IL-10 or released IL-10 at 20 ng/mL) and incubated for 24 h at 37° C. Then the cells were washed with ice-cold PBS three times and harvested by scraping into Eppendorf tubes, followed by centrifugation at 12,000 rpm for 5 min at 4° C. For protein extraction, the cells were lysed in 200 μL of protein extraction reagent (Fisher Scientific, Pittsburgh, Pa., USA) supplemented with protease inhibitor cocktail and phosphatase inhibitor cocktail (Sigma-Aldrich), and then centrifuged at 12,000 rpm for 10 min at 4° C. to remove the nuclei. Next, protein concentration was measured using a Coomassie Plus-Bradford™ assay with bovine serum albumin as the protein standard. The cell lysates (with 30 μg of protein) were mixed with 4× Laemmli Sample Buffer (Bio-Rad), and the mixture was boiled for 7 min at 95° C. […] Then the membranes were blocked with Tris-Buffered Saline-0.1% Tween 20 (TBST) solution containing 5% BSA for 2 h at 4° C. on a shaker. The primary antibodies (1:1000 dilutions) in TBST with 3% BSA were incubated with the membranes overnight at 4° C. on a shaker. After that, the membranes were washed with TBST solution four times (each 10 min) and then incubated with secondary antibody (1:10,000 dilutions) in TBST with 3% BSA for 1 h at room temperature on a shaker. Finally, the membranes were washed with TBST solution five times and visualized using Amersham ECL prime western blotting detection reagent (GE Healthcare Life Sciences, Pittsburgh, Pa., USA). The primary and secondary antibodies used in this study were from Cell Signaling Technology (Danvers, Mass., USA) as follows: β-Actin (8H10D10) Mouse mAb, Stat3 (124H6) Mouse mAb, and Phospho-Stat3 (Tyr705) (3E2) Mouse mAb as a primary antibody, and anti-mouse IgG (HRP-linked) antibody as a secondary antibody.

[6] = system: DNFB-induced allergic contact dermatitis; experiment: DNFB-induced allergic contact dermatitis (ACD) model; format: in vivo, C57BL/6 mice; conditions: 100 μg IL-10/kg i.v. 2 h before DNFB, ear thickness at 36 h
Method: C57BL/6 mice were administered i.v. saline, TNPs, IL-10, or IL-10-loaded TNPs (100 μg IL-10/kg). At 2 h post-injection, a 0.3% v/v solution of DNFB (2,4-dinitro-fluorobenzene) in acetone was applied the mice to the dorsal and ventral aspects of ear skin. Ear thickness was measured using an engineer's micrometer (Mitutoyo) at 36 h. The change of ear thickness is calculated as the difference between the treated ear and the contralateral ear treated with acetone alone.
Ears were fixed in a 10% formalin solution, embedded in paraffin, and submitted for histological analysis by haematoxilin and eosin staining to the Harvard Rodent Histopathology Core.
For ear-skin digestion, the dorsal and ventral aspects of the ear were mechanically separated before mincing and placing into a digestion mix consisting of DMEM (Gibco) supplemented with HEPES (Invitrogen), 2% FCS, 200 μg/mL Liberase TM (Roche), 10 μg/mL DNase I (Roche), and 5 mg/mL Collagenase D (Roche). Ears were digested for 80 minutes at 37° C. in gentleMACS tubes (Miltenyi) with gentle agitation in freshly prepared digestion mix. After enzymatic digestion, the mixture was processed using a gentleMACS homogenizer (Miltenyi) in order to obtain a cell suspension, which was then filtered through a 70 μm cell strainer (BD). Cells were then resuspended in FACS buffer for analysis. […]

[7] = mouse, in vivo, iv
Method: At 5 min, 30 min, 1 h, 2 h, 4 h, 8 h, 12 h, and 24 h post-injection, blood samples (0.5 mL) were drawn for serum protein concentration analysis. Next, the blood samples were placed at 4° C. overnight to allow the formation of a blood clot and centrifuged under 2,000×g for 15 min at 4° C. The serum samples were stored at −80° C. and analyzed using an ELISA kit. […] The AUC (area under the serum concentration-time curve) and AUMC (area under the first moment curve) were calculated using the trapezoidal rule.

[8] = system: TNF-α and IL-12 gene expression; experiment: qPCR of proinflammatory cytokines in LPS-stimulated macrophage cells; format: cell-based; conditions: LPS 500 ng/mL 4 h, then IL-10 20 ng/mL 2 h
Method: as §1

Molecule | Encapsulation efficiency [1] [%] | Loading content [1] [wt %] | Release profile from TNPs [2] | Inhibitory effect on ROS production, dose response ([3]; IL-10 1-100 ng/mL, LPS 100 ng/mL, pre-treatment) | Increase of sIL-1Ra mRNA expression compared to LPS alone [4] | P-STAT3 (Tyr705) level [5] | Total levels of STAT3 [5] | Ear swelling [6] | Clearance [7] [mL/min/kg] | Improvement of half-life versus IL-10 alone [7] [fold] | T1/2 terminal [7] [min] | Vss [7] [L/kg] | Inhibitory effect on ROS production, pre-treatment (IL-10→LPS) ([3]; 50 ng/mL IL-10 24 h, then 100 ng/mL LPS 24 h) | Reduction of TNF-α and IL-12 expression [8]
lysozyme: lysozyme from chicken egg whites, model protein loaded into TNPs (1:20) | 90 | 1.8 | controlled-release kinetics up to a week |  |  |  |  |  |  |  |  |  |  | 
B1 |  |  |  | dose-dependent inhibition effect | 1.5 fold | clear band | slightly increased | reduction of ear swelling compared to the saline-treated control | 32.9928 | 5.9 | 15 | 0.70727 |  | 
B2 |  |  |  |  | effects identical to those of the native protein | almost identical | almost identical |  |  |  |  |  | almost no statistical difference between the released IL-10 and native IL-10 | ca. 2.5 fold
